{"source": "paper PMC11190312", "origin": "cited, not measured here", "key": {"[1]": {"target": "nucleoprotein (SARS-CoV-1) (UniProt P59595)", "conditions": "cited from earlier work"}, "[2]": {"target": "nucleoprotein (SARS-CoV-2) (UniProt P0DTC9)", "conditions": "cited from earlier work"}}}
{"substance": "MASP-2 (from UniProt O00187)", "values": [{"measurement": "Kd", "setting": "[1]", "value": 268, "unit": "nM"}, {"measurement": "Kd", "setting": "[2]", "value": 514, "unit": "nM"}]}
